# Test results taken from US20250295776A1, “CLEAVAGE RESISTANT CD16 CONSTRUCTS AND USES THEREOF” (Celularity Inc., priority 2022, published 2025).
# What was measured:
# Assay in all cases: cell-based or functional assay
# [1] = target: high affinity (158 Val) and proteinase cleavage resistant (197Pro) CD16 variant (CD16VP) (human) (UniProt P08637)
# [2] = target: endogenous CD16 on non-transduced (NT) placental NK cells (human) (UniProt P08637)
# [3] = target: CD16VS (construct #5: 176 V; SCRAMBLED original sequence), without Myc tag (human) (UniProt P08637)
# [4] = target: HER2 (human epidermal growth factor 2) on HER2 overexpressing tumor cell lines (human) (UniProt P04626)
# [5] = target: Construct #1 (176 V; 197 Glycine (G)), without Myc tag (human) (UniProt P08637)
# [6] = target: Construct #10 (176 V (also referred to as 158 V); 197 Serine (S)), without Myc tag (human) (UniProt P08637)
# Avelumab (anti-PD-L1 antibody), sequence (HC): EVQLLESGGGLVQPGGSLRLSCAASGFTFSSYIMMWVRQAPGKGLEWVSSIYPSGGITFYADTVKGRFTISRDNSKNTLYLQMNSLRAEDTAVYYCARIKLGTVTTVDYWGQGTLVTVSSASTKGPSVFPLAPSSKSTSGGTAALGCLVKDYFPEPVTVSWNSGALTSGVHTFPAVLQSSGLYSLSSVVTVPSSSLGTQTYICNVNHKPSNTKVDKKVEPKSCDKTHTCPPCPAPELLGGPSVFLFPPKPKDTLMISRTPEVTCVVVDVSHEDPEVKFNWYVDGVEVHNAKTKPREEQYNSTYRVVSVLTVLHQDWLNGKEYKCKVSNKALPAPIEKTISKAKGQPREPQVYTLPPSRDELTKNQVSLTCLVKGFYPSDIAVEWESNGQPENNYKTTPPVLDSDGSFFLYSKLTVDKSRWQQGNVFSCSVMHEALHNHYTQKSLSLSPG
# Avelumab (anti-PD-L1 antibody), sequence (LC): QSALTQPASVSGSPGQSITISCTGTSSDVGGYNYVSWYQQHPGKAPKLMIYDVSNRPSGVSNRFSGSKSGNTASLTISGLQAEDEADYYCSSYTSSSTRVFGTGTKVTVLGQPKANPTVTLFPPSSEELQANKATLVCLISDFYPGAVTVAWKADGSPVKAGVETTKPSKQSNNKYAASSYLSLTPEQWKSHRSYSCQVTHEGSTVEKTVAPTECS
substance,measurement,setting,value
Daratumumab (anti-CD38) (antibody),"cytotoxicity (ADCC) of PNK-CD16VP cells against Daratumumab opsonized Daudi cells, E:T 10:1 (n=5)",[1],47%
same,"cytotoxicity (ADCC) of PNK-CD16VP cells against Daratumumab opsonized HS-Sultan cells, E:T 10:1 (n=3)",[1],30%
same,"cytotoxicity (ADCC) of PNK-CD16VP cells against Daratumumab opsonized Sudh16 cells, E:T 10:1 (n=3)",[1],30%
same,"cytotoxicity (ADCC) of NT cells against Daratumumab opsonized Daudi cells, E:T 10:1 (n=5)",[2],25%
same,"cytotoxicity (ADCC) of NT cells against Daratumumab opsonized HS-Sultan cells, E:T 10:1 (n=3)",[2],21%
same,"cytotoxicity (ADCC) of NT cells against Daratumumab opsonized Sudh16 cells, E:T 10:1 (n=3)",[2],16%
Avelumab (anti-PD-L1 antibody),"cytolysis of 5637, T-24, RT-112 and NCI-H1975 tumor cell lines by PT-CD16VS cells with Avelumab, 24 hours, 5:1 E:T ratio",[3],100%
same,"cytolysis of MDA-MB-231 by PT-CD16VS cells with Avelumab, 12 hours, 5:1 E:T ratio",[3],70%
Ultra-LEAF purified human IgG1 isotype control recombinant antibody,"lysis of NCI-N87 cells by CYNK-101 cells (n=7 donors) in the presence of IgG control, 24 h, E:T 0.6:1, xCELLigence",[4],7.5%
same,"lysis of OE19 cells by CYNK-101 cells (n=7 donors) in the presence of IgG control, 24 h, E:T 0.6:1, xCELLigence",[4],14.7%
metalloprotease ADAM17 (from UniProt P78536 215-824) (enzyme),"CD16 shedding percentage post 2 h PMAi stimulation, transduced CYNK cells (n=6 donors)",[5],9.4%
same,"CD16 shedding after PMA/ionomycin activation, flow cytometry, PNK-CD16VP cells",[1],< 11%
same,"CD16 shedding percentage post 2 h PMAi stimulation, transduced CYNK cells (n=6 donors)",[1],4.3%
same,"CD16 shedding after 2 h PMAi, control sample",[2],60%
same,"CD16 shedding percentage post 2 h PMAi stimulation, NT CYNK cells",[2],74.7%
same,"CD16 shedding percentage post 2 h PMAi stimulation, transduced CYNK cells (n=6 donors)",[6],1.8%
same,"CD16 shedding percentage post 2 h PMAi stimulation, transduced CYNK cells (n=6 donors)",[3],0.6%
